Reference: the supplement of paper PMC9170038

Tested on: MS2 coat protein
Assay: apparent KD of MS2 coat protein; designed switch direction (-1 OFF switch, 1 ON switch): -1; higher = weaker reporter binding
Procedure, shortened: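 Designed RNA switches were transcribed on Illumina chips by stalled E. coli RNA polymerase and titrated with SNAP-549-labelled MS2 coat protein from 0.7 or 1.5 nM, doubling to 3 µM. Step length ran from 0.8–1.5 h at the lowest concentration to 10–20 min at the highest. The apparent KD is the median over clusters for each design, from curve-fitted normalised cluster fluorescence.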

[1] = Eterna round: R95, input ligand: FMN 200 uM
[2] = Eterna round: R95, input ligand: microRNA oligo, concentration not stated
[3] = Eterna round: R95, input ligand: none
[4] = input ligand: microRNA oligo, concentration not stated

## AGAUGUAGAUACCGGUCCUACAUGAGGAUCACCCAUGUAGCUUGACGUGCGGGCGGCGCUCGUCGGUCUACCAGUAG [salish99_TOv1_r3_100] (puzzle: Sensor v3, turn-off variant 1)
[1]
  apparent KD of MS2 coat protein: 27.3 nM
[2]
  apparent KD of MS2 coat protein: 28.6 nM
[3]
  apparent KD of MS2 coat protein: 36.2 nM

## GUCGUGCGGCUUUGCUGUACGAGUACAUGAGGAUCACCCAUGUAGGAUAUGGUUCGUUUUGCGUGCCAGAAGGGCGUGCGUUGU [Excl-NG3-LRO14] (Eterna round: R96, puzzle: Exclusion NG 3)
[4]
  apparent KD of MS2 coat protein: 15.1 nM

## AUCACGGAUGUAAGGAUAUACAAAACCAUAAGGUAGUAGAAGGUACAUGAGGAUCACCCAUGUGCAUAUGUUUA [BmEX4 C.14] (Eterna round: R97, puzzle: Brourd's mod of Exclusion 4)
Input ligand: FMN 200 uM
  apparent KD of MS2 coat protein: 18.5 nM
Input ligand: none
  apparent KD of MS2 coat protein: 16.2 nM

## GGUCAAGAGCAGAUCCGCGCUGCUAUUGACCGCUCAUUUACAUGAGGAUCACCCAUGUUUUUUGCUCGUCUUAUUAC [Biinedmaa] (puzzle: Sensor v3, turn-off variant 2)
[1]
  apparent KD of MS2 coat protein: 19.4 nM
[2]
  apparent KD of MS2 coat protein: 77.7 nM
[3]
  apparent KD of MS2 coat protein: 18.7 nM

## AAAGGACGAGGAUAUACAUGAGGAUCACCCAUGUAAAAAGCAUAAUAAAAUAACUUAUGUAGAAGGCGUCCAAA [Mat - Exclusion 3 - Eli mod - D91] (Eterna round: R96, puzzle: Exclusion 3)
[4]
  apparent KD of MS2 coat protein: 18.5 nM

## CGGCCGUUUGUAAGGAUAUAACUAGUUGCGACCAGUUAGAAGGUACAUGAGGAUCACCCAUGUCUUCCAGUGGC [Eternabot (L1) Solution 76] (Eterna round: R97, puzzle: Brourd's mod of Exclusion 4)
Input ligand: FMN 200 uM
  apparent KD of MS2 coat protein: 16.2 nM
Input ligand: none
  apparent KD of MS2 coat protein: 15.1 nM

## AAUAUCGUAGGAUAUUAGUGCUCAGACAUGAGGAUCACCCAUGUUUGGUGGGUUGGAGAAUGAGAAGGGCGAUGAA [EX5 #17] (Eterna round: R97, puzzle: Exclusion 5)
Input ligand: FMN 200 uM
  apparent KD of MS2 coat protein: 376 nM
Input ligand: none
  apparent KD of MS2 coat protein: 687 nM

## CGGGAGGAAGGAUAUACACGGCCUCCUAGAAUAAAUCCUGGACAUGAGGAUCACCCAUGUAGAAGGUCCACCGA [Tiuslala] (puzzle: Exclusion 2)
[2]
  apparent KD of MS2 coat protein: 17.3 nM

## GAAUGAGAGCAGGAUAUCUUAUAAAUGUAUGAAAGAGAAGGGCUCACAUGAGGAUCACCCAUGUGGUCCUAAAU [jl-ex6-4.74 jandersonlee mod] (Eterna round: R97, puzzle: Exclusion 6)
Input ligand: FMN 200 uM
  apparent KD of MS2 coat protein: 286 nM
Input ligand: none
  apparent KD of MS2 coat protein: 44.5 nM

## GGCGUGUAUUAGGAUAUUGGAGGGAGGGAGGGCUAAGAAGGAGUAACAUGAGGAUCACCCAUGUAGAGGAAGGG [RHig 2] (Eterna round: R97, puzzle: Exclusion 6)
Input ligand: FMN 200 uM
  apparent KD of MS2 coat protein: 63.1 nM
Input ligand: none
  apparent KD of MS2 coat protein: 95.3 nM

## AAAAGGCGAGGAUAUACAUGAGGAUCACCCAUGUGAAAGAAAGAAAGAAAGAAGAAAGGUAGAAGGCGCAAAGA [Mine, also!] (puzzle: Exclusion 3)
[1]
  apparent KD of MS2 coat protein: 83.6 nM
[2]
  apparent KD of MS2 coat protein: 42.6 nM
[3]
  apparent KD of MS2 coat protein: 67 nM

## AAGUCAGCAGGAUAUGCGAUGUUGGGCUAGGUAGCGUGACCACAUGAGGAUCACCCAUGUAGAAGGGCUGGCUA [EX2 Malc#36] (Eterna round: R96, puzzle: Exclusion 2)
Input ligand: FMN 200 uM
  apparent KD of MS2 coat protein: 45.6 nM
[4]
  apparent KD of MS2 coat protein: 21.9 nM
Input ligand: none
  apparent KD of MS2 coat protein: 29.7 nM

## GUCCUACAUGAGGAUCACCCAUGUAAGGAUAUGCUAGCGGUCGGAUGACUGACUGCUAGCAGAAGGUACAUGAU [Mat - Mod of JL D78] (puzzle: Exclusion 1)
[2]
  apparent KD of MS2 coat protein: 15.5 nM

## UUUUACAUAGGAUAUAGUUUCUUUUACAUGAGGAUCACCCAUGUCUCUCCUCUCUCUCUUCUAGAAGGAUGUUUCU [JR_E5_Sub012] (puzzle: Exclusion 5)
[2]
  apparent KD of MS2 coat protein: 86.1 nM

## UAGAAGCUCAGGGAGUGAGACAUGAGGAUCACCCAUGUGGUGGUAGGGAACAAGCUUUUUGCACGUACUUAUGAGGA [JR_SV3TOV1_Sub006] (puzzle: Sensor v3, turn-off variant 1)
[1]
  apparent KD of MS2 coat protein: 367 nM
[2]
  apparent KD of MS2 coat protein: 134 nM
[3]
  apparent KD of MS2 coat protein: 189 nM

## CCAUGUUAGCAGGAUAUGCAAUAAAUCUUUUAAGCAGAAGGGCUUACAUGAGGAUCACCCAUGUAUAAAGUCAA [JR_E6_Sub079] (puzzle: Exclusion 6)
[2]
  apparent KD of MS2 coat protein: 19.9 nM

## AAGAUGUCAGGAUAUUAGUAGUAAAUGAAUAAAAUUAUUACUGAGAAGGGACAUGAGGAUCACCCAUGUGCCUU [Mat - Exclusion 4 - Eli Mod - D10] (Eterna round: R97, puzzle: Exclusion 4)
Input ligand: FMN 200 uM
  apparent KD of MS2 coat protein: 17.5 nM
Input ligand: none
  apparent KD of MS2 coat protein: 16.6 nM

## CACGGACGAUAAGGAUAUGUUAUAGCUCAAACAGCAGAAGGUGUUAAACCACCGUCACAUGAGGAUCACCCAUGUGUGACAGUU [Eternabot solution 34] (Eterna round: R96, puzzle: Exclusion NG 1)
Input ligand: FMN 200 uM
  apparent KD of MS2 coat protein: 46.5 nM
[4]
  apparent KD of MS2 coat protein: 30.7 nM
Input ligand: none
  apparent KD of MS2 coat protein: 40.3 nM

## AAGAGGCGGACAGGAUAUGGGAAAUUGUAAAGACCAGAAGGGUCGGCGAAAAUACAUGAGGAUCACCCAUGUGACUCAUGACCA [AK ExNG1-7.1] (Eterna round: R96, puzzle: Exclusion NG 1)
Input ligand: FMN 200 uM
  apparent KD of MS2 coat protein: 913 nM
[4]
  apparent KD of MS2 coat protein: 311 nM
Input ligand: none
  apparent KD of MS2 coat protein: 290 nM

## UUCCUCGUUGUGAGGAUAUCGUCCUAUUUUUGUUACGAGAAGGCACAUGAGGAUCACCCAUGUUACUUGAUGUU [JR_BMOE4_Sub071] (Eterna round: R96, puzzle: Brourd's mod of Exclusion 4)
Input ligand: FMN 200 uM
  apparent KD of MS2 coat protein: 188 nM
[4]
  apparent KD of MS2 coat protein: 21.1 nM
Input ligand: none
  apparent KD of MS2 coat protein: 26 nM

## GCCGUAAAUGUGAGGAUAUACCUAUGGAAACAUAGGUAGAAGGCACAUGAGGAUCACCCAUGUUCUUAAUCGGC [Mat - Exclusion 4 - Eli Mod - D2] (Eterna round: R97, puzzle: Brourd's mod of Exclusion 4)
Input ligand: FMN 200 uM
  apparent KD of MS2 coat protein: 689 nM
Input ligand: none
  apparent KD of MS2 coat protein: 212 nM

## AAAAAGGUAGGAUAUACGAAAAAAAAGGGUAGAAAAAAAACACAUGAGGAUCACCCAUGUAGAAGGACCAAAAC [salish99_ex2_r3_046] (puzzle: Exclusion 2)
[1]
  apparent KD of MS2 coat protein: 66.7 nM
[2]
  apparent KD of MS2 coat protein: 33.4 nM
[3]
  apparent KD of MS2 coat protein: 30.2 nM

## UUUAGUUCAGGAUAUGUAGAUUUUAACAUGAGGAUCACCCAUGUAGAUCCUGAAUUAACUACAGAAGGGAACAUUA [Exclusion 5: 2:d] (puzzle: Exclusion 5)
[2]
  apparent KD of MS2 coat protein: 19.4 nM

## GAUCAACAUGAGGAUCACCCAUGUGAGGAUAUGUAUCAUAGAUCUUCGGAUCUAUGAUACAGAAGGCAUGUAGG [Ex1-3: 100] (puzzle: Exclusion 1)
[2]
  apparent KD of MS2 coat protein: 74.2 nM

## AAAUUGUGAGGAUAUUCGUAGUACACGGAGACGUGUAUUACGGAGAAGGCACAUGAGGAUCACCCAUGUUCCUU [jl-ex4-13 Eli mod] (Eterna round: R97, puzzle: Exclusion 4)
Input ligand: FMN 200 uM
  apparent KD of MS2 coat protein: 103 nM
Input ligand: none
  apparent KD of MS2 coat protein: 19.1 nM

## GUGUAGUCAGGAUAUACAUAGGAAGAGAAGAGAAGAGAAGCACAUGAGGAUCACCCAUGUAGAAGGGACAGUGU [Excluse me!! 4 - Jieux - Exclusion 2] (puzzle: Exclusion 2)
[1]
  apparent KD of MS2 coat protein: 85.7 nM
[2]
  apparent KD of MS2 coat protein: 61.4 nM
[3]
  apparent KD of MS2 coat protein: 61 nM

## GUGGGUUACAUGAGGAUCACCCAUGUAGAGUGGGAAGAGAGAUAGGAUAUGAUGUGAGAAUCAUAUCAGAAGGAUCGAGACUCG [AK ExNG3-2.3] (Eterna round: R96, puzzle: Exclusion NG 3)
Input ligand: FMN 200 uM
  apparent KD of MS2 coat protein: 512 nM
[4]
  apparent KD of MS2 coat protein: 158 nM
Input ligand: none
  apparent KD of MS2 coat protein: 354 nM

## AGAGUACAUGAGGAUCACCCAUGUUAGGAUAUGCAUAAUAAGAAGAAGAGAAGAGAGAGCAGAAGGAACAAGAG [Ex 1 M1] (puzzle: Exclusion 1)
[1]
  apparent KD of MS2 coat protein: 42.5 nM
[2]
  apparent KD of MS2 coat protein: 48 nM
[3]
  apparent KD of MS2 coat protein: 57.8 nM

## CUAUUCCGAGGAUAUACAUGAGGAUCACCCAUGUCGGGCCUCCGCGUUUAGCGCCUCAGUAGAAGGCGGGUUUC [JL Riri mod 2] (puzzle: Exclusion 3)
[2]
  apparent KD of MS2 coat protein: 17.2 nM

## UUUUACUUAGGAUAUACAUUUUUUUAUUUAUUUAUAAUAUUACAUGAGGAUCACCCAUGUAGAAGGGAGAUUUU [My Design] (Eterna round: R96, puzzle: Exclusion 2)
Input ligand: FMN 200 uM
  apparent KD of MS2 coat protein: 76.9 nM
[4]
  apparent KD of MS2 coat protein: 64.3 nM
Input ligand: none
  apparent KD of MS2 coat protein: 72.3 nM

## AGCUUUGGAGGAUAUUGAGCGGAAAACAUGAGGAUCACCCAUGUAAGUGGGCGAAAUGUAUAAGAAGGCCGAAGGU [Eternabot (L2) Solution 15] (Eterna round: R97, puzzle: Exclusion 5)
Input ligand: FMN 200 uM
  apparent KD of MS2 coat protein: 205 nM
Input ligand: none
  apparent KD of MS2 coat protein: 278 nM

## AAAUCACAUGAGGAUCACCCAUGUCAGGAUAUCGACUGAACAGCUUCGGCUGUUCAGUCGAGAAGGGACAAUUA [Brourdxlusion 1 - Jieux - Exclusion 1] (Eterna round: R97, puzzle: Exclusion 1)
Input ligand: FMN 200 uM
  apparent KD of MS2 coat protein: 133 nM
Input ligand: none
  apparent KD of MS2 coat protein: 43.2 nM
